Publication PMC4245140, “Towards Engineering Hormone-Binding Globulins as Drug Delivery Agents” (PLoS ONE, 2014)

Legend:
[1] = biological target: prostate specific antigen (PSA) (Homo sapiens, UniProt P07288); experiment: Protease cleavage assay (SDS-PAGE) with prostate specific antigen; format: biochemical; conditions: incubation 2-72 hours
Text: Reactive loop cleavage is marked by a characteristic 4 kDa change in molecular weight following release of a peptide when the R-state CBG is unfolded, such as when it is subjected to the denaturing conditions of an SDS-PAGE [14], [22]. We used this as a convenient means by which to check the engineered protein's protease specificity and, as a corollary, its site specificity.

[2] = Fluorimetric titration of L-T4-thyroxine-6-carboxyfluorescein with engineered CBG; format: binding; conditions: 25°C
Experimental: (§1) Fluorescence spectroscopy was used to study the CBG-ligand interactions. Experiments were performed on an LS55 120V fluorescence spectrometer (Perkin Elmer), and the data were read and recorded using their proprietary FL WinLab software. For binding studies of CBG with cortisol, the excitation wavelength was set at 280 nm and the emission was detected at 350 nm, with a 315 nm cut-off filter used to prevent the excitation laser from leaching into the emission channel. For the binding studies of engineered CBG with L-T4-thyroxine-6-carboxyfluorescein, the excitation wavelength was set at 495 nm and emission was recorded at 520 nm whilst applying a 515 nm cut-off filter.
L-T4-thyroxine-6-carboxyfluorescein was previously synthesised and purified as a 1.09 µM solution with acetonitrile as its solvent. This was diluted into a 5 nM solution with a buffer containing 10 mM Tris-HCl, pH 7.4, 150 mM NaCl, 1 mM EDTA, 0.1% v/v PEG 8000. Aliquots of the engineered CBG were titrated into 800 µl of this solution, and increments in fluorescence signal were monitored.
(§2) In both cases, the data were fitted using Prism 5 (GraphPad Software) to the following equation to obtain the dissociation constant, Kd: [drawing 2] (2) where ΔF is the fluorescence change, ΔFM is the maximum change in fluorescence signal, [L]t is the total concentration of ligand added and [E]t is the total protein concentration.

[3] = Biolayer interferometry of CBG on immobilised cortisol (ForteBio Octet Red); format: binding; conditions: CBG 0-10000 nM
Experimental: Biolayer interferometry was carried out on a ForteBio Octet Red apparatus (ForteBio, Menlo Park, California, USA) to determine binding affinity where fluorescence quenching experiments would not work due to mutation of Trp 371, which is the main source of intrinsic fluorescence in the binding pocket. The system uses a change in interference pattern of reflected light to detect the change in optical thickness of the sensor tip. Cortisol was immobilised on the biosensor tip surface by forming an adduct of hydrocortisone 21-hemisuccinate and a pentylamine-biotin linker through an amide bond, then allowing the biotin moiety on this cortisol adduct to bind to the streptavidin-conjugated biosensor tip. The cortisol-conjugated sensors were immersed into wells of a shaking microtitre plate containing solutions of CBG at 0, 200, 500, 1000, 2500, 5000 and 10000 nM concentrations in a 10 mM Tris-HCl, pH 7.4, 150 mM NaCl, 1 mM EDTA, 0.1 mg/ml bovine serum albumin buffer, and analysed against an internal reference.

[4] = Fluorimetric titration (intrinsic fluorescence quenching) of CBG with cortisol; format: binding; conditions: for Kd / Fold change in Kd (cortisol) on reactive centre loop cleavage, S to R: physiological temperature (37°C); for Fold change in Kd (cortisol) on reactive centre loop cleavage, S to R: disulphide mutants in absence of TCEP
Experimental: CBG is known to bind cortisol with a one-to-one stoichiometry, [19]. Therefore, the dissociation constant, which is a measure of binding affinity, is given by the following equation: [drawing 1] (1) where [E]f is the concentration of free CBG, [L]f is the concentration of free ligand, and [E·L] is the concentration of the CBG-ligand complex.
as §1
The cortisol stock solution was prepared by dissolving lyophilised cortisol (Sigma Aldrich) in 80% ethanol to make a 500 µM solution, which was then diluted with water to make solutions of 20, 40 and 80 µM, with water being used as a negative control. Aliquots of the ligand solutions were then titrated into 800 µl of a 200 nM solution of CBG made by diluting the protein stock with a buffer containing 10 mM Tris-HCl, pH 7.4, 150 mM NaCl, 1 mM EDTA, 0.1% v/v PEG 8000, and the decrease in fluorescence due to quenching was measured.
as §2

[5] = intact S-state, read-out: Kd for cortisol, S (uncleaved) conformation
[6] = reactive centre loop-cleaved R-state, read-out: Kd for cortisol, R (cleaved) conformation

Chain of prostate specific antigen (PSA) (P07288 25-261): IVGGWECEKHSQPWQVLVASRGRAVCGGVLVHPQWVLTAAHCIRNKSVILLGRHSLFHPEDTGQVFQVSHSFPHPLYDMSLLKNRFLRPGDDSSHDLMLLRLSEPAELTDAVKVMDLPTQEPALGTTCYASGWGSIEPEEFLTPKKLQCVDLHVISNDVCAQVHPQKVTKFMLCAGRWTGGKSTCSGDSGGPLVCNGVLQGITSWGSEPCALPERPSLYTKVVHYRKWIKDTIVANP

Molecule: SALLSSDI: CBG variant with reactive centre loop segment STGVTLNL mutated to SALLSSDI (PSA substrate) (EEGVDTAGSALLSSDITSKPII)
- Cleavage of reactive centre loop by PSA [1]: cleavage of their respective reactive centre loops

B1: TBG: Thyroxine binding globulin, hormone-carrying serpin, comparator (protein, UniProt P05543 21-415, looked up)
Thyroxine-binding globulin: ASPEGKVTACHSSQPNATLYKMSSINADFAFNLYRRFTVETPDKNIFFSPVSISAALVMLSFGACCSTQTEIVETLGFNLTDTPMVEIQHGFQHLICSLNFPKKELELQIGNALFIGKHLKPLAKFLNDVKTLYETEVFSTDFSNISAAKQEINSHVEMQTKGKVVGLIQDLKPNTIMVLVNYIHFKAQWANPFDPSKTEDSSSFLIDKTTTVQVPMMHQMEQYYHLVDMELNCTVLQMDYSKNALALFVLPKEGQMESVEAAMSSKTLKKWNRLLQKGWVDLFVPKFSISATYDLGATLLKMGIQHAYSENADFSGLTEDNGLKLSNAAHKAVLHIGEKGTEAAAVPEVELSDQPENTFLHPIIQIDRSFMLLILERSTRSILFLGKVVNPTEA
- Kd [2]: 0.73 nM

B2: CBG-Trp371Ala: Human CBG with binding pocket Trp 371 mutated to alanine (protein, UniProt P08185 23-405, looked up, variant W371A)
Corticosteroid-binding …: MDPNAAYVNMSNHHRGLASANVDFAFSLYKHLVALSPKKNIFISPVSISMALAMLSLGTCGHTRAQLLQGLGFNLTERSETEIHQGFQHLHQLFAKSDTSLEMTMGNALFLDGSLELLESFSADIKHYYESEVLAMNFQDWATASRQINSYVKNKTQGKIVDLFSGLDSPAILVLVNYIFFKGTWTQPFDLASTREENFYVDETTVVKVPMMLQSSTISYLHDSELPCQLVQMNYVGNGTVFFILPDKGKMNTVIAALSRDTINRWSAGLTSSQVDLYIPKVTISGVYDLGDVLEEMGIADLFTNQANFSRITQDAQLKSSKVVHKAVLQLNEEGVDTAGSTGVTLNLTSKPIILRFNQPFIIMIFDHFTASSLFLARVMNPV
- Affinity for cortisol by biolayer interferometry [3]: no detectable affinity for cortisol

B3: P1-Arg + V336I: Human CBG with P14 Val336Ile on T349R (P1 Arg) background, thrombin-cleavable (protein, UniProt P08185 23-405, looked up, variant V336I T349R)
Corticosteroid-binding …: MDPNAAYVNMSNHHRGLASANVDFAFSLYKHLVALSPKKNIFISPVSISMALAMLSLGTCGHTRAQLLQGLGFNLTERSETEIHQGFQHLHQLFAKSDTSLEMTMGNALFLDGSLELLESFSADIKHYYESEVLAMNFQDWATASRQINSYVKNKTQGKIVDLFSGLDSPAILVLVNYIFFKGTWTQPFDLASTREENFYVDETTVVKVPMMLQSSTISYLHDSELPCQLVQMNYVGNGTVFFILPDKGKMNTVIAALSRDTINRWSAGLTSSQVDLYIPKVTISGVYDLGDVLEEMGIADLFTNQANFSRITQDAQLKSSKVVHKAVLQLNEEGIDTAGSTGVTLNLRSKPIILRFNQPFIIMIFDHFTWSSLFLARVMNPV
- Kd [4, 5]: 326 ± 46 nM
- Fold change in Kd (cortisol) on reactive centre loop cleavage, S to R [4]: 10 fold
- Kd [4, 6]: 3420 ± 440 nM

B4: CBG-Trp371Arg: Human CBG with binding pocket Trp 371 mutated to arginine (protein, UniProt P08185 23-405, looked up, variant W371R)
Corticosteroid-binding …: MDPNAAYVNMSNHHRGLASANVDFAFSLYKHLVALSPKKNIFISPVSISMALAMLSLGTCGHTRAQLLQGLGFNLTERSETEIHQGFQHLHQLFAKSDTSLEMTMGNALFLDGSLELLESFSADIKHYYESEVLAMNFQDWATASRQINSYVKNKTQGKIVDLFSGLDSPAILVLVNYIFFKGTWTQPFDLASTREENFYVDETTVVKVPMMLQSSTISYLHDSELPCQLVQMNYVGNGTVFFILPDKGKMNTVIAALSRDTINRWSAGLTSSQVDLYIPKVTISGVYDLGDVLEEMGIADLFTNQANFSRITQDAQLKSSKVVHKAVLQLNEEGVDTAGSTGVTLNLTSKPIILRFNQPFIIMIFDHFTRSSLFLARVMNPV
- Affinity for cortisol by biolayer interferometry [3]: no measurable affinity for cortisol
- Kd [2]: 840 nM

B5: P1-Arg + V336L: Human CBG with P14 Val336Leu on T349R (P1 Arg) background, thrombin-cleavable (protein, UniProt P08185 23-405, looked up, variant V336L T349R)
Corticosteroid-binding …: MDPNAAYVNMSNHHRGLASANVDFAFSLYKHLVALSPKKNIFISPVSISMALAMLSLGTCGHTRAQLLQGLGFNLTERSETEIHQGFQHLHQLFAKSDTSLEMTMGNALFLDGSLELLESFSADIKHYYESEVLAMNFQDWATASRQINSYVKNKTQGKIVDLFSGLDSPAILVLVNYIFFKGTWTQPFDLASTREENFYVDETTVVKVPMMLQSSTISYLHDSELPCQLVQMNYVGNGTVFFILPDKGKMNTVIAALSRDTINRWSAGLTSSQVDLYIPKVTISGVYDLGDVLEEMGIADLFTNQANFSRITQDAQLKSSKVVHKAVLQLNEEGLDTAGSTGVTLNLRSKPIILRFNQPFIIMIFDHFTWSSLFLARVMNPV
- Kd [4, 5]: 295 ± 44 nM
- Fold change in Kd (cortisol) on reactive centre loop cleavage, S to R [4]: 8.2 fold
- Kd [4, 6]: 2420 ± 200 nM

B6: P1-Arg + S100C-V236C-V336L: Human CBG combining S100C-V236C disulphide and V336L on T349R background (protein, UniProt P08185 23-405, looked up, variant S100C V236C V336L T349R)
Corticosteroid-binding …: MDPNAAYVNMSNHHRGLASANVDFAFSLYKHLVALSPKKNIFISPVSISMALAMLSLGTCGHTRAQLLQGLGFNLTERSETEIHQGFQHLHQLFAKSDTCLEMTMGNALFLDGSLELLESFSADIKHYYESEVLAMNFQDWATASRQINSYVKNKTQGKIVDLFSGLDSPAILVLVNYIFFKGTWTQPFDLASTREENFYVDETTVVKVPMMLQSSTISYLHDSELPCQLVQMNYCGNGTVFFILPDKGKMNTVIAALSRDTINRWSAGLTSSQVDLYIPKVTISGVYDLGDVLEEMGIADLFTNQANFSRITQDAQLKSSKVVHKAVLQLNEEGLDTAGSTGVTLNLRSKPIILRFNQPFIIMIFDHFTWSSLFLARVMNPV
- Kd [4, 5]: 252 ± 17 nM
- Fold change in Kd (cortisol) on reactive centre loop cleavage, S to R [4]: 6.4 fold
- Kd [4, 6]: 1600 ± 320 nM

B7: P1-Arg + S100C-V236C: Human CBG with Ser100Cys/Val236Cys disulphide mutations on T349R background (PDB 4C41, cleaved) (protein, UniProt P08185 23-405, looked up, variant S100C V236C T349R)
Corticosteroid-binding …: MDPNAAYVNMSNHHRGLASANVDFAFSLYKHLVALSPKKNIFISPVSISMALAMLSLGTCGHTRAQLLQGLGFNLTERSETEIHQGFQHLHQLFAKSDTCLEMTMGNALFLDGSLELLESFSADIKHYYESEVLAMNFQDWATASRQINSYVKNKTQGKIVDLFSGLDSPAILVLVNYIFFKGTWTQPFDLASTREENFYVDETTVVKVPMMLQSSTISYLHDSELPCQLVQMNYCGNGTVFFILPDKGKMNTVIAALSRDTINRWSAGLTSSQVDLYIPKVTISGVYDLGDVLEEMGIADLFTNQANFSRITQDAQLKSSKVVHKAVLQLNEEGVDTAGSTGVTLNLRSKPIILRFNQPFIIMIFDHFTWSSLFLARVMNPV
- Change in cortisol binding affinity after reactive loop cleavage in presence of TCEP ([4]; 37°C, reducing agent TCEP present): very similar to that of wild-type CBG
- Kd [4, 5]: 278 ± 64 nM
- Fold change in Kd (cortisol) on reactive centre loop cleavage, S to R [4]: 6.5 fold
- Kd [4, 6]: 1800 ± 49 nM

B8: P1-Arg + S100C-V236C-V336I: Human CBG combining S100C-V236C disulphide and V336I on T349R background (protein, UniProt P08185 23-405, looked up, variant S100C V236C V336I T349R)
Corticosteroid-binding …: MDPNAAYVNMSNHHRGLASANVDFAFSLYKHLVALSPKKNIFISPVSISMALAMLSLGTCGHTRAQLLQGLGFNLTERSETEIHQGFQHLHQLFAKSDTCLEMTMGNALFLDGSLELLESFSADIKHYYESEVLAMNFQDWATASRQINSYVKNKTQGKIVDLFSGLDSPAILVLVNYIFFKGTWTQPFDLASTREENFYVDETTVVKVPMMLQSSTISYLHDSELPCQLVQMNYCGNGTVFFILPDKGKMNTVIAALSRDTINRWSAGLTSSQVDLYIPKVTISGVYDLGDVLEEMGIADLFTNQANFSRITQDAQLKSSKVVHKAVLQLNEEGIDTAGSTGVTLNLRSKPIILRFNQPFIIMIFDHFTWSSLFLARVMNPV
- Kd [4, 5]: 297 ± 40 nM
- Fold change in Kd (cortisol) on reactive centre loop cleavage, S to R [4]: 7.6 fold
- Kd [4, 6]: 2260 ± 320 nM
